Consider 47 substances from the array DNA melting data of Ke et al..

This series can be described thus: melting temperature; melt of duplexes. The note with it: sodium 0.0675 M; strand 1 µM.
Consider “CGACGTGCATTATGTGCTG+CAGCACATAAAGCACGTCG ((((((((.((((((((((+)))))))))).))))))))”, for which the Tm amounted to 54.6 °C.
Consider “CGACGTGCAGGATGTGCTG+CAGCACATATAGCACGTCG ((((((((...((((((((+))))))))...))))))))”, for which the Tm is 50.6 °C.
For the substance “CGACGTGCTCAATGTGCTG+CAGCACATGTAGCACGTCG (((((((((..((((((((+))))))))..)))))))))”, the Tm worked out at 52.8 °C.
The result for “CGACGTGCCTCATGTGCTG+CAGCACATAGTGCACGTCG ((((((((...((((((((+))))))))...))))))))” reads 45.9 °C; that for “CGACGTGCGCAATGTGCTG+CAGCACATGCGGCACGTCG ((((((((...((((((((+))))))))...))))))))”, 56.3 °C; that for “CGACGTGCTCCATGTGCTG+CAGCACATTAAGCACGTCG (((((((((..((((((((+))))))))..)))))))))”, 49.4 °C.
The result for “CGACGTGCTCAATGTGCTG+CAGCACATACTGCACGTCG ((((((((...((((((((+))))))))...))))))))” reads 48.7 °C; that for “CGACGTGCCTTATGTGCTG+CAGCACATTTTGCACGTCG ((((((((...((((((((+))))))))...))))))))”, 47.9 °C; that for “CGACGTGCATGATGTGCTG+CAGCACATTTGGCACGTCG ((((((((...((((((((+))))))))...))))))))”, 50.3 °C.
With “CGACGTGCATGATGTGCTG+CAGCACATCTCGCACGTCG ((((((((..(((((((((+)))))))))..))))))))”, the Tm was determined as 53.9 °C.
The result for “CGACGTGCAGAATGTGCTG+CAGCACATTACGCACGTCG ((((((((..(((((((((+)))))))))..))))))))” reads 52.7 °C.
As for “CGACGTGCGGGATGTGCTG+CAGCACATTTGGCACGTCG ((((((((...((((((((+))))))))...))))))))”, the Tm came out at 51.3 °C.
“CGACGTGCAGCATGTGCTG+CAGCACATGACGCACGTCG ((((((((..(((((((((+)))))))))..))))))))”: the Tm is 52 °C.
In the case of “CGACGTGCAGAATGTGCTG+CAGCACATTTGGCACGTCG ((((((((..(((((((((+)))))))))..))))))))” it was 54.3 °C.
The result for “CGACGTGCTATATGTGCTG+CAGCACATAACGCACGTCG ((((((((..(((((((((+)))))))))..))))))))” reads 50.8 °C.
The result for “CGACGTGCCTCATGTGCTG+CAGCACATGAGGCACGTCG (((((((((((((((((((+)))))))))))))))))))” reads 65.8 °C; that for “CGACGTGCCTCATGTGCTG+CAGCACATGCCGCACGTCG ((((((((..(((((((((+)))))))))..))))))))”, 51.4 °C; that for “CGACGTGCCTCATGTGCTG+CAGCACATCCCGCACGTCG ((((((((...((((((((+))))))))...))))))))”, 46.5 °C.
As to “CGACGTGCACGATGTGCTG+CAGCACATGGTGCACGTCG ((((((((((.((((((((+)))))))).))))))))))”, the Tm came out at 55.8 °C.
In the case of “CGACGTGCCCTATGTGCTG+CAGCACATCACGCACGTCG ((((((((...((((((((+))))))))...))))))))” it was 46.4 °C; in that of “CGACGTGCCCTATGTGCTG+CAGCACATAATGCACGTCG ((((((((..(((((((((+)))))))))..))))))))”, 48.8 °C.
In the case of “CGACGTGCTTGATGTGCTG+CAGCACATATAGCACGTCG (((((((((..((((((((+))))))))..)))))))))” it was 54 °C.
In the case of “CGACGTGCCAGATGTGCTG+CAGCACATCCCGCACGTCG ((((((((..(((((((((+)))))))))..))))))))” it was 53.3 °C; in that of “CGACGTGCGTGATGTGCTG+CAGCACATCGGGCACGTCG ((((((((..(((((((((+)))))))))..))))))))”, 57.5 °C; in that of “CGACGTGCTCGATGTGCTG+CAGCACATAGCGCACGTCG ((((((((.(.((((((((+)))))))).).))))))))”, 51.6 °C.
On to “CGACGTGCTCTATGTGCTG+CAGCACATCAAGCACGTCG (((((((((..((((((((+))))))))..)))))))))”, for which the Tm turned out to be 51.1 °C.
In the case of “CGACGTGCGAGATGTGCTG+CAGCACATATGGCACGTCG ((((((((.(.((((((((+)))))))).).))))))))”, the Tm amounted to 53.3 °C.
In the case of “CGACGTGCAATATGTGCTG+CAGCACATAAAGCACGTCG ((((((((..(((((((((+)))))))))..))))))))” it was 52 °C; in that of “CGACGTGCCGCATGTGCTG+CAGCACATGGCGCACGTCG ((((((((..(((((((((+)))))))))..))))))))”, 54.9 °C.
As for “CGACGTGCCAAATGTGCTG+CAGCACATTTCGCACGTCG ((((((((.((((((((((+)))))))))).))))))))”, the Tm is 54.1 °C.
In the case of “CGACGTGCACAATGTGCTG+CAGCACATCTGGCACGTCG ((((((((...((((((((+))))))))...))))))))”, the Tm came to 47.5 °C.
The result for “CGACGTGCGCAATGTGCTG+CAGCACATAGAGCACGTCG ((((((((.(.((((((((+)))))))).).))))))))” reads 54.7 °C; that for “CGACGTGCTTCATGTGCTG+CAGCACATCGGGCACGTCG ((((((((...((((((((+))))))))...))))))))”, 48.9 °C; that for “CGACGTGCTATATGTGCTG+CAGCACATTTCGCACGTCG ((((((((.(.((((((((+)))))))).).))))))))”, 49 °C.
Take “CGACGTGCAAAATGTGCTG+CAGCACATTTGGCACGTCG ((((((((.((((((((((+)))))))))).))))))))”: the Tm is 57.6 °C.
In the case of “CGACGTGCTGAATGTGCTG+CAGCACATCATGCACGTCG ((((((((...((((((((+))))))))...))))))))” it was 53.1 °C; in that of “CGACGTGCGTGATGTGCTG+CAGCACATAATGCACGTCG ((((((((.(.((((((((+)))))))).).))))))))”, 52.9 °C; in that of “CGACGTGCCGTATGTGCTG+CAGCACATCAGGCACGTCG (((((((((..((((((((+))))))))..)))))))))”, 57.1 °C.
The result for “CGACGTGCTTAATGTGCTG+CAGCACATAGTGCACGTCG ((((((((...((((((((+))))))))...))))))))” reads 44 °C; that for “CGACGTGCGACATGTGCTG+CAGCACATTTGGCACGTCG ((((((((.(.((((((((+)))))))).).))))))))”, 50.6 °C; that for “CGACGTGCCACATGTGCTG+CAGCACATTTGGCACGTCG ((((((((((.((((((((+)))))))).))))))))))”, 57.6 °C.
The result for “CGACGTGCACAATGTGCTG+CAGCACATCTCGCACGTCG ((((((((...((((((((+))))))))...))))))))” reads 45.1 °C.
As for “CGACGTGCAGCATGTGCTG+CAGCACATGTTGCACGTCG (((((((((.(((((((((+))))))))).)))))))))”, the Tm turned out to be 58.7 °C.
In the case of “CGACGTGCATAATGTGCTG+CAGCACATCAAGCACGTCG ((((((((.(.((((((((+)))))))).).))))))))” it was 48.4 °C.
The result for “CGACGTGCAACATGTGCTG+CAGCACATACAGCACGTCG ((((((((...((((((((+))))))))...))))))))” reads 47.9 °C.
On to “CGACGTGCGATATGTGCTG+CAGCACATGTTGCACGTCG ((((((((.(.((((((((+)))))))).).))))))))”, for which the Tm is 54.6 °C.
In the case of “CGACGTGCGCGATGTGCTG+CAGCACATCAAGCACGTCG ((((((((..(((((((((+)))))))))..))))))))” it was 59 °C.
